Reference: the Human Domainome abundance scans (Beltran et al. 2025)
± gives the uncertainty stated by the source.

B1: Double-stranded RNA-binding protein Staufen homolog 1, residues 183 to 249; numbered along this chain, O95793 (parent)
chain: KSEISQVFEIALKRNLPVNFEVARESGPPHMKNFVTKVSVGEFVGEGEGKSKKISKKNAAIAVLEEL

Variants of: B1
Test: abundance fitness (aPCA) (normalised: wild type 0, dead -1); higher = more abundant; growth selection in yeast, the domain comes from the species named
Settings: Homo sapiens

| Variant | abundance fitness |
| --- | --- |
| KSEISQVFEIALKRNLPVNFEVAAESGPPHMKNFVTKVSVGEFVGEGEGKSKKISKKNAAIAVLEEL [R24A] | -0.132 ± 0.047 |
| KSEISQVFEIALKRNLPVNFEVAPESGPPHMKNFVTKVSVGEFVGEGEGKSKKISKKNAAIAVLEEL [R24P] | -0.035 ± 0.051 |
| KSEISQVFEIALKRNLPVNFEVAIESGPPHMKNFVTKVSVGEFVGEGEGKSKKISKKNAAIAVLEEL [R24I] | -0.17 ± 0.09 |
| KSEISQVFEIALKRNLPVNFEVADESGPPHMKNFVTKVSVGEFVGEGEGKSKKISKKNAAIAVLEEL [R24D] | -0.141 ± 0.081 |
| KSEISQVFEIALKRNLPVNFEVANESGPPHMKNFVTKVSVGEFVGEGEGKSKKISKKNAAIAVLEEL [R24N] | -0.207 ± 0.069 |
| KSEISQVFEIALKRNLPVNFEVASESGPPHMKNFVTKVSVGEFVGEGEGKSKKISKKNAAIAVLEEL [R24S] | -0.065 ± 0.039 |
| KSEISQVFEIALKRNLPVNFEVAEESGPPHMKNFVTKVSVGEFVGEGEGKSKKISKKNAAIAVLEEL [R24E] | -0.031 ± 0.044 |
| KSEISQVFEIALKRNLPVNFEVAKESGPPHMKNFVTKVSVGEFVGEGEGKSKKISKKNAAIAVLEEL [R24K] | 0.016 ± 0.049 |
| KSEISQVFEIALKRNLPVNFEVAHESGPPHMKNFVTKVSVGEFVGEGEGKSKKISKKNAAIAVLEEL [R24H] | -0.118 ± 0.073 |
| KSEISQVFEIALKRNLPVNFEVATESGPPHMKNFVTKVSVGEFVGEGEGKSKKISKKNAAIAVLEEL [R24T] | -0.085 ± 0.045 |
| KSEISQVFEIALKRNLPVNFEVACESGPPHMKNFVTKVSVGEFVGEGEGKSKKISKKNAAIAVLEEL [R24C] | -0.045 ± 0.074 |
| KSEISQVFEIALKRNLPVNFEVAVESGPPHMKNFVTKVSVGEFVGEGEGKSKKISKKNAAIAVLEEL [R24V] | -0.102 ± 0.036 |
| KSEISQVFEIALKRNLPVNFEVALESGPPHMKNFVTKVSVGEFVGEGEGKSKKISKKNAAIAVLEEL [R24L] | -0.129 ± 0.035 |
| KSEISQVFEIALKRNLPVNFEVARESGEPHMKNFVTKVSVGEFVGEGEGKSKKISKKNAAIAVLEEL [P28E] | -0.153 ± 0.062 |
| KSEISQVFEIALKRNLPVNFEVARESGQPHMKNFVTKVSVGEFVGEGEGKSKKISKKNAAIAVLEEL [P28Q] | -0.202 ± 0.063 |
| KSEISQVFEIALKRNLPVNFEVARESGVPHMKNFVTKVSVGEFVGEGEGKSKKISKKNAAIAVLEEL [P28V] | -0.278 ± 0.052 |
| KSEISQVFEIALKRNLPVNFEVARESGMPHMKNFVTKVSVGEFVGEGEGKSKKISKKNAAIAVLEEL [P28M] | -0.303 ± 0.062 |
| KSEISQVFEIALKRNLPVNFEVARESGTPHMKNFVTKVSVGEFVGEGEGKSKKISKKNAAIAVLEEL [P28T] | -0.177 ± 0.07 |
| KSEISQVFEIALKRNLPVNFEVARESGIPHMKNFVTKVSVGEFVGEGEGKSKKISKKNAAIAVLEEL [P28I] | -0.322 ± 0.067 |
| KSEISQVFEIALKRNLPVNFEVARESGAPHMKNFVTKVSVGEFVGEGEGKSKKISKKNAAIAVLEEL [P28A] | -0.155 ± 0.056 |

| Variant | abundance fitness |
| --- | --- |
| KSEISQVFEIALKRNLPVNFEVARESGHPHMKNFVTKVSVGEFVGEGEGKSKKISKKNAAIAVLEEL [P28H] | -0.123 ± 0.091 |
| KSEISQVFEIALKRNLPVNFEVARESGWPHMKNFVTKVSVGEFVGEGEGKSKKISKKNAAIAVLEEL [P28W] | -0.316 ± 0.046 |
| KSEISQVFEIALKRNLPVNFEVARESGFPHMKNFVTKVSVGEFVGEGEGKSKKISKKNAAIAVLEEL [P28F] | -0.35 ± 0.07 |
| KSEISQVFEIALKRNLPVNFEVARESGYPHMKNFVTKVSVGEFVGEGEGKSKKISKKNAAIAVLEEL [P28Y] | -0.342 ± 0.073 |
| KSEISQVFEIALKRNLPVNFEVARESGCPHMKNFVTKVSVGEFVGEGEGKSKKISKKNAAIAVLEEL [P28C] | -0.157 ± 0.069 |
| KSEISQVFEIALKRNLPVNFEVARESGSPHMKNFVTKVSVGEFVGEGEGKSKKISKKNAAIAVLEEL [P28S] | -0.089 ± 0.045 |
| KSEISQVFEIALKRNLPVNFEVARESGNPHMKNFVTKVSVGEFVGEGEGKSKKISKKNAAIAVLEEL [P28N] | -0.152 ± 0.091 |
| KSEISQVFEIALKRNLPVNFEVARESGKPHMKNFVTKVSVGEFVGEGEGKSKKISKKNAAIAVLEEL [P28K] | -0.218 ± 0.057 |
| KSEISQVFEIALKRNLPVNFEVARESGGPHMKNFVTKVSVGEFVGEGEGKSKKISKKNAAIAVLEEL [P28G] | -0.111 ± 0.038 |
| KSEISQVFEIALKRNLPVNFEVARESGDPHMKNFVTKVSVGEFVGEGEGKSKKISKKNAAIAVLEEL [P28D] | -0.167 ± 0.096 |
| KSEISQVFEIALKRNLPVNFEVYRESGPPHMKNFVTKVSVGEFVGEGEGKSKKISKKNAAIAVLEEL [A23Y] | -0.086 ± 0.059 |
| KSEISQVFEIALKRNLPVNFEVSRESGPPHMKNFVTKVSVGEFVGEGEGKSKKISKKNAAIAVLEEL [A23S] | -0.063 ± 0.038 |
| KSEISQVFEIALKRNLPVNFEVTRESGPPHMKNFVTKVSVGEFVGEGEGKSKKISKKNAAIAVLEEL [A23T] | 0.033 ± 0.04 |
| KSEISQVFEIALKRNLPVNFEVWRESGPPHMKNFVTKVSVGEFVGEGEGKSKKISKKNAAIAVLEEL [A23W] | -0.141 ± 0.042 |
| KSEISQVFEIALKRNLPVNFEVARESGPFHMKNFVTKVSVGEFVGEGEGKSKKISKKNAAIAVLEEL [P29F] | -0.28 ± 0.082 |
| KSEISQVFEIALKRNLPVNFEVARESGPDHMKNFVTKVSVGEFVGEGEGKSKKISKKNAAIAVLEEL [P29D] | -0.051 ± 0.097 |
| KSEISQVFEIALKRNLPVNFEVARESGPEHMKNFVTKVSVGEFVGEGEGKSKKISKKNAAIAVLEEL [P29E] | -0.022 ± 0.056 |
| KSEISQVFEIALKRNLPVNFEVARESGPGHMKNFVTKVSVGEFVGEGEGKSKKISKKNAAIAVLEEL [P29G] | 0.052 ± 0.043 |
| KSEISQVFEIALKRNLPVNFEVARESGPAHMKNFVTKVSVGEFVGEGEGKSKKISKKNAAIAVLEEL [P29A] | -0.005 ± 0.045 |
| KSEISQVFEIALKRNLPVNFEVARESGPCHMKNFVTKVSVGEFVGEGEGKSKKISKKNAAIAVLEEL [P29C] | -0.198 ± 0.056 |
